Laboratory results from patent US20250243286A1 (SIXPEAKS BIO, published 2025).
Where two headings read alike, the source gives them in different places.

T1: human ActRIIB (human, UniProt Q13705 19-137, limits assumed)
T1 construct: antigen in MSD-SET; also called ACVR2B; ActR2B
T1 sequence: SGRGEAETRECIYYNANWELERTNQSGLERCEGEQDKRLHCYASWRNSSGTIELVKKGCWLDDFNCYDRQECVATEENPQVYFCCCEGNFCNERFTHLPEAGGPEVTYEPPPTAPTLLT


Legend:
human ActRIIA [1] = molecular target: T2, human ActRIIA (human, UniProt P27037 20-135, limits assumed); experiment: MSD-SET
T2 construct: antigen in MSD-SET; also called ACVR2A; ActR2A

human ActRIIA [2] = molecular target: T2, human ActRIIA; experiment: MSD-SET; remark: listed apart in the source
human ActRIIA [3] = molecular target: T2, human ActRIIA; experiment: MSD-SET; remark: listed apart in the source
[4] = molecular target: T3, ActRIIA and ActRIIB (on TGFB/SMAD SBE Reporter HEK293 cells) (human); experiment: cell-based or functional assay
[5] = molecular target: T3, ActRIIA and ActRIIB (on TGFB/SMAD SBE …); experiment: cell-based or functional assay; remark: listed apart in the source
human ActRIIB [6] = molecular target: T1, human ActRIIB; experiment: MSD-SET; human ActRIIB; full-length IgG (Table 4B)
human ActRIIB [7] = molecular target: T1, human ActRIIB; experiment: MSD-SET; human ActRIIB; full antibody, separate cross-reactivity study (Table 6A)
human ActRIIB [8] = molecular target: T1, human ActRIIB; experiment: MSD-SET
human ActRIIA [9] = molecular target: T2, human ActRIIA; experiment: MSD-SET, Fab KD over IgG KD
human ActRIIB [10] = molecular target: T1, human ActRIIB; experiment: MSD-SET, Fab KD over IgG KD
human ActRIIB [11] = molecular target: T1, human ActRIIB; experiment: MSD-SET; remark: listed apart in the source
human ActRIIB [12] = molecular target: T1, human ActRIIB; experiment: MSD-SET; remark: listed apart in the source
human ActRIIB [13] = molecular target: T1, human ActRIIB; experiment: MSD-SET, preliminary
[14] = molecular target: T3, ActRIIA and ActRIIB (on TGFB/SMAD SBE …); experiment: cell-based or functional assay; remark: listed apart in the source
human ActRIIA [15] = molecular target: T2, human ActRIIA; experiment: MSD-SET; remark: listed apart in the source
[16] = molecular target: T3, ActRIIA and ActRIIB (on TGFB/SMAD SBE …)
[17] = molecular target: T3, ActRIIA and ActRIIB (on TGFB/SMAD SBE …); remark: listed apart in the source
[18] = molecular target: T3, ActRIIA and ActRIIB (on TGFB/SMAD SBE …); experiment: cell-based or functional assay; remark: listed apart in the source
mouse ActRIIA = mouse ActRIIA (mouse, UniProt P27038 20-135, limits assumed); experiment: MSD-SET
Pig ActRIIA = Pig ActRIIA (pig, UniProt F1S0H6 20-135); experiment: MSD-SET
Dog ActRIIA = Dog ActRIIA (dog, UniProt A0A8I3MYH0 20-135); experiment: MSD-SET
human ActRIIB [19] = molecular target: T1, human ActRIIB; experiment: MSD-SET; remark: listed apart in the source

T2 sequence (P27037 20-135 limits assumed): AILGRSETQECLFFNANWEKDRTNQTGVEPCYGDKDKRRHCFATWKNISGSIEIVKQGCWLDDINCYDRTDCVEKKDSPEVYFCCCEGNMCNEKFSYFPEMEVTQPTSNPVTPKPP
Sequence of mouse ActRIIA (P27038 20-135 limits assumed): as the sequence (P27037 20-135 limits assumed) above, with K20R, V73I counted along it

Binder | Kd (human ActRIIA [1]) [nM] | Kd (human ActRIIA [2]) [nM] | Kd (human ActRIIA [3]) [nM] | IC50, Activin SMAD RGA [4] [nM] | IC50, Myostatin SMAD RGA [4] [nM] | IC90, Activin SMAD RGA [4] [nM] | IC90, Myostatin SMAD RGA [4] [nM] | IC50, Activin SMAD RGA [5] [nM] | IC50, Myostatin SMAD RGA [5] [nM] | Kd (human ActRIIB [6]) [nM] | Kd (human ActRIIB [7]) [nM] | Kd (human ActRIIB [11]) [nM] | Kd (human ActRIIB [13]) [nM] | Kd (mouse ActRIIA) [nM] | Kd (Pig ActRIIA) [nM] | Kd (Dog ActRIIA) [nM] | further results
Antibody Wurschdsalat (antibody, V domains shown, full-length IgG) VH: QVQLVQSGAEVKKPGASVKVSCKASGYTFTSSYINWVRQAPGQGLEWMGTINAVSGSTSYAQKFQGRVTMTRDESISTAYMELSRLRSDDTAVYYCARGGWFDYWGQGTLVTVSS VL: QSALTQPASVSGSPGQSITISCTGTSSDVGSYNYVNWYQQHPGKAPKLMIYGVSKRESGVSNRFSGSKSGNTASLTISGLQAEDEADYYCGTFAGGKYYGVFGGGTKLTVL | 0.005 | 0.005 | 0.0218 | 0.266 | 0.4 | 1.9 | 3.89 | 0.29 | 0.33 | 0.006 | 0.0044 |  |  |  |  |  | 
Biiramooscht Fab (Fab, V domains shown, Fab) VH: QVQLVQSGAEVKKPGASVKVSCKASGYTFTSSYINWVRQAPGQGLEWMGTINPVSGSTSYAQKFQGRVTMTRDTSISTAYMELSRLRSDDTAVYYCARGGWFDYWGQGTLVTVSS VL: QSALTQPASVSGSPGQSITISCTGTSSDVGSYNYVNWYQQHPGKAPKLMIYGVSKRESGVSNRFSGSKSGNTASLTISGLQAEDEADYYCGTFAGGAYYGVFGGGTKLTVL |  | 0.145 |  |  |  |  |  | 1.58 | 2.09 |  |  |  |  |  |  |  | Kd (human ActRIIB [8]): 0.021 nM; IC50 fold difference (Fab:IgG), Activin SMAD RGA [5]: 7.4 fold; IC50 fold difference (Fab:IgG), Myostatin SMAD RGA [5]: 7.9 fold; Fold difference (Fab:IgG) (human ActRIIA [9]): 5.2 fold; Fold difference (Fab:IgG) (human ActRIIB [10]): 4.4 fold
Antibody Ofaschlupfer (antibody, V domains shown, full-length IgG) VH: QVQLVQSGAEVKKPGSSVKVSCKASGYTFTSSYINWVRQAPGQGLEWMGTINAVSGSTSYAQKFQGRVTITADTSTSTAYMELSSLRSEDTAVYYCARGGWFDYWGQGTLVTVSS VL: QSALTQPRSVSGSPGQSVTISCTGTSSDVGSKNYVNWYQQHPGKAPKLMIYGVSKRESGVPDRFSGSKSGNTASLTISGLQAEDEADYYCGTFAGGKYYGVFGGGTKLTVL |  |  |  |  | 0.7 | 2.27 | 14.4 |  |  |  |  | 0.0029 | 0.0277 |  |  |  | Kd (human ActRIIB [12]): 0.0029 nM; IC50 fold difference to bimagrumab, Myostatin SMAD RGA [4]: 0.8 fold; IC90 fold difference to bimagrumab, Activin SMAD RGA [4]: 4.1 fold; IC90 fold difference to bimagrumab, Myostatin SMAD RGA [4]: 0.9 fold; IC95, Activin SMAD RGA [4]: 4.97 nM; IC95, Myostatin SMAD RGA [4]: 55.2 nM; IC95 fold difference to bimagrumab, Activin SMAD RGA [4]: 7.6 fold; IC95 fold difference to bimagrumab, Myostatin SMAD RGA [4]: 1 fold; IC99, Activin SMAD RGA [4]: 28.1 nM; IC99, Myostatin SMAD RGA [4]: 1240 nM; IC99 fold difference to bimagrumab, Activin SMAD RGA [4]: 29.6 fold; IC99 fold difference to bimagrumab, Myostatin SMAD RGA [4]: 2.2 fold; IC50, Activin SMAD RGA [14]: 0.32 nM; IC50 fold difference to bimagrumab, Activin SMAD RGA [14]: 1 fold; IC90, Activin SMAD RGA [14]: 3.02 nM; IC90 fold difference to bimagrumab, Activin SMAD RGA [14]: 2.1 fold; IC95, Activin SMAD RGA [14]: 7.07 nM; IC95 fold difference to bimagrumab, Activin SMAD RGA [14]: 21.8 fold; IC99, Activin SMAD RGA [14]: 47.8 nM; IC99 fold difference to bimagrumab, Activin SMAD RGA [14]: 147 fold
Antibody Hefaknöpfla (antibody, V domains shown, full-length IgG) VH: QVQLVQSGAEVKKPGASVKVSCKASGYTFTSSYINWVRQAPGQGLEWMGTINAVSGSTSYAQKFQGRVTMTRDTSISTAYMELSRLRSDDTAVYYCARGGWFDYWGQGTLVTVSS VL: QSALTQPASVSGSPGQSITISCTGTSSDVGSKNYVNWYQQHPGKAPKLMIYGVSKRESGVSNRFSGSKSGNTASLTISGLQAEDEADYYCGTFAGGKYYGVFGGGTKLTVL | 0.015 | 0.015 | 0.0123 | 0.139 | 0.211 | 2.16 | 5.37 | 0.13 | 0.26 | 0.005 | 0.0043 |  |  |  |  |  | Kd (human ActRIIA [15]): 0.015 nM; IC50 (read off the curve); Activin-stimulated SMAD reporter gene assay [16]: 0.2 nM; IC50 (read off the curve); Myostatin-stimulated SMAD reporter gene assay [17]: 0.3 nM; IC50 [nM] (assay not given) [18]: 0.011 nM; IC50 fold difference to bimagrumab (assay not given) [18]: 27 fold; IC90 [nM] (assay not given) [18]: 1.6 nM; IC90 fold difference to bimagrumab (assay not given) [18]: 4.11 fold
Bimagrumab Fab (Fab, V domains shown, Fab) VH: QVQLVQSGAEVKKPGASVKVSCKASGYTFTSSYINWVRQAPGQGLEWMGTINPVSGSTSYAQKFQGRVTMTRDTSISTAYMELSRLRSDDTAVYYCARGGWFDYWGQGTLVTVSS VL: QSALTQPASVSGSPGQSITISCTGTSSDVGSYNYVNWYQQHPGKAPKLMIYGVSKRPSGVSNRFSGSKSGNTASLTISGLQAEDEADYYCGTFAGGSYYGVFGGGTKLTVL |  |  |  |  |  |  |  | 4.39 | 6.87 |  |  |  |  | 0.239 | 0.188 | 0.354 | 
Antibody Duuranad (antibody, V domains shown, full-length IgG) VH: QVQLVQSGAEVKKPGASVKVSCKASGYTFTSSYINWVRQAPGQGLEWMGTINAVSGSTSYAQKFQGRVTMTRDTSISTAYMELSRLRSDDTAVYYCARGGWFDYWGQGTLVTVSS VL: QSALTQPASVSGSPGQSITISCTGTSSDVGSFNYVNWYQQHPGKAPKLMIRGVSKRESGVSNRFSGSKSGNTASLTISGLQAEDEADYYCGTFAGGAYYGVFGGGTKLTVL | 0.009 | 0.009 | 0.0212 | 0.272 | 0.432 | 2.22 | 4.45 | 0.3 | 0.39 | 0.005 | 0.0054 |  |  |  |  |  | 

More lines, main results first:

Kd (human ActRIIA [1]) [nM] | Kd (human ActRIIA [2]) [nM] | Kd (human ActRIIA [3]) [nM] | IC50, Activin SMAD RGA [4] [nM] | IC50, Myostatin SMAD RGA [4] [nM] | IC90, Activin SMAD RGA [4] [nM] | IC90, Myostatin SMAD RGA [4] [nM] | IC50, Activin SMAD RGA [5] [nM] | IC50, Myostatin SMAD RGA [5] [nM] | Kd (human ActRIIB [6]) [nM] | Kd (human ActRIIB [7]) [nM] | Kd (human ActRIIB [11]) [nM] | Kd (human ActRIIB [13]) [nM] | Kd (mouse ActRIIA) [nM] | Kd (Pig ActRIIA) [nM] | Kd (Dog ActRIIA) [nM] | Binder | further results
 | 0.157 |  |  |  |  |  | 0.4 | 0.78 |  |  |  |  |  |  |  | Rippla Fab (Fab, V domains shown, Fab) VH: QVQLVQSGAEVRKPGASVKVSCKASGYTFTSSYINWVRQAPGQGLEWMGTINPVSGSTSYAQKFQGRVTMTRDTSISTAYMELSRLRSDDTAVYYCARGGWFDYWGQGTLVTVSS VL: QSALTQPASVSGSPGQSITISCTGTSSDVGSYNRVNWYQQHPGKAPKLMIYGVSKRESGVSNRFSGSKSGNTASLTISGLQAEDEADYYCGTFAGGRYYGVFGGGTKLTVL | Kd (human ActRIIB [8]): 0.006 nM; IC50 fold difference (Fab:IgG), Activin SMAD RGA [5]: 4.6 fold; IC50 fold difference (Fab:IgG), Myostatin SMAD RGA [5]: 5.1 fold; Fold difference (Fab:IgG) (human ActRIIA [9]): 3.8 fold; Fold difference (Fab:IgG) (human ActRIIB [10]): 1.1 fold
 |  |  |  |  |  |  |  |  |  |  | 0.0138 | 0.0726 | 0.039 | 0.029 | 0.044 | Schwardamaga Fab (Fab, V domains shown, Fab) VH: QVQLVQSGAEVKKPGSSVKVSCKASGYTFTSSYINWVRQAPGQGLEWMGTINAVSGSTSYAQKFQGRVTITADTSTSTAYMELSSLRSEDTAVYYCARGGWFDYWGQGTLVTVSS VL: QSALTQPRSVSGSPGQSVTISCTGTSSDVGSANYVNWYQQHPGKAPKPMIYGVSRRPSGVPDRFSGSKSGNTASLTISGLQAEDEADYYCGTFAGGKYYGVFGGGTKLTVL | Kd (human ActRIIB [19]): 0.01 nM
 |  |  |  |  |  |  |  |  |  |  | 0.0026 | 0.0197 | 0.04 | 0.022 | 0.028 | Soidawürstle Fab (Fab, V domains shown, Fab; also called Soidawüsrstel (Fab)) VH: QVQLVQSGAEVRKPGSSVKVSCKASGYTFTSSYINWVRQAPGQGLEWMGTINPVSGSTSYAQKFQGRVTITADTSTSTAYMELSSLRSEDTAVYYCARGGWFDYWGQGTLVTVSS VL: QSALTQPRSVSGSPGQSVTISCTGTSSDVGSYNRVNWYQQHPGKAPKLMIYGVSKRESGVPDRFSGSKSGNTASLTISGLQAEDEADYYCGTFAGGRYYGVFGGGTKLTVL | Kd (human ActRIIB [19]): 0.011 nM
